Source: patent publication US20240083986A1 (published 2024)

T1: Alder (Aln g 1, MyBiosource, Cat #MBS1041484) (Alder, UniProt P38948 2-160, limits assumed)
T1 construct: Bought reagent
T1 sequence (looked up): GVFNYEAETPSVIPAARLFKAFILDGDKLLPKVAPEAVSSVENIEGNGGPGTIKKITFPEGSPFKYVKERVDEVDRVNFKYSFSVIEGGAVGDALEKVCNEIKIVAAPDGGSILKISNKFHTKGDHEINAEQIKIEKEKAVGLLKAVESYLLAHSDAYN

T2: Celery (Api g 1, MyBiosource, Cat #MBS1171376) (Celery, UniProt P49372 1-154, limits assumed)
T2 construct: Bought reagent
T2 sequence (looked up): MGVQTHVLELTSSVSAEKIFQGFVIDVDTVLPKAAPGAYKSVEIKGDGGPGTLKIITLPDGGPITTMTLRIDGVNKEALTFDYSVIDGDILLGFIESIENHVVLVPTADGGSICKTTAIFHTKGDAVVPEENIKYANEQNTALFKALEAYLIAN

T3: European Hornbeam (Car b 1 isoform 1A & 1B, MyBiosource, Cat #MBS1200018) (European Hornbeam, UniProt P38949 2-160)
T3 construct: Bought reagent
T3 sequence (looked up): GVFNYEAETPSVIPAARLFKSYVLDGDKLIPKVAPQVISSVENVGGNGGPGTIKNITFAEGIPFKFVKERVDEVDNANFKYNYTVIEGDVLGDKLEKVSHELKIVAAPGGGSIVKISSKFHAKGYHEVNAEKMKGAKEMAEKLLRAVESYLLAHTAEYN

T4: CHO produced recombinant Bet v 1 containing a S85A mutation with a C-terminal myc-myc hexahistidine tag … (Betula verrucosa (birch))
T4 chain: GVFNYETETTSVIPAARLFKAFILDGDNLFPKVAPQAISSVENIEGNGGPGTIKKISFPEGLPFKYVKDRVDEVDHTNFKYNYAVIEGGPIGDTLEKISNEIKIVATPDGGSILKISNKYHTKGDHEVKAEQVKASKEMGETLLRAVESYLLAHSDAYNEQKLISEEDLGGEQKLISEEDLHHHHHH

T5: Apple (Mal d 1, MyBiosource, Cat #MBS1224919) (Apple, UniProt P43211 2-159, limits assumed)
T5 construct: Bought reagent
T5 sequence (looked up): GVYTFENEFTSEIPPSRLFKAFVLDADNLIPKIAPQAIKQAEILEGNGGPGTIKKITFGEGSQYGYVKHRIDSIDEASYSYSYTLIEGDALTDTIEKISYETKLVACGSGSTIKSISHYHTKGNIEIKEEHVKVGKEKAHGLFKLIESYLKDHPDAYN

T6: European Hornbeam (Car b 1 isoform 2, MyBiosource, Cat #MBS1043940) (European Hornbeam, UniProt P38950 2-160, limits assumed)
T6 construct: Bought reagent
T6 sequence (looked up): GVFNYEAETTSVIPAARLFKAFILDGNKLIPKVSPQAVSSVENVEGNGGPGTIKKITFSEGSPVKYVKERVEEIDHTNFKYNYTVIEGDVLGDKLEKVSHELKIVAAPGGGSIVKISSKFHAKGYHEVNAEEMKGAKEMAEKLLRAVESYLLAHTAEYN


Legend:
[1] = molecular target: T1, Alder (Aln g 1, MyBiosource, Cat …); test: SPR, mAb captured via anti-hFc, 25 C
Method: (§1) Equilibrium dissociation constants (KD) for different related allergens binding to purified anti-Bet v 1 monoclonal antibodies were determined using a real-time surface plasmon resonance biosensor (SPR-Biacore) on a Biacore 4000 instrument. All binding studies were performed in 10 mM HEPES, 150 mM NaCl, 3 mM EDTA, and 0.05% v/v surfactant Tween-20, pH 7.4 (HBS-ET) running buffer at 25° C. […] Binding studies were performed on the following related allergens: Alder (Aln g 1, MyBiosource, Cat #MBS1041484), Apple (Mal d 1, MyBiosource, Cat #MBS1224919), Carrot (Dau c 1.2, MyBiosource, Cat #MBS1212920), Celery (Api g 1, MyBiosource, Cat #MBS1171376), Celery (Api g 2, MyBiosource, Cat #MBS1047880), European Hornbeam (Car b 1 isoform 1A & 1B, MyBiosource, Cat #MBS1200018), European Hornbeam (Car b 1 isoform 2, MyBiosource, Cat #MBS1043940), Hazel (Cor A 1, MyBiosource, Cat #MBS5304600), and White Oak (Que a 1, MyBiosource, Cat #MBS1258822). […] Association (kₐ) and dissociation (kd) rate constants were determined by fitting the real-time binding sensorgrams to a 1:1 binding model with mass transport limitation using Scrubber 2.0c curve-fitting software. Binding dissociation equilibrium constants (KD) and dissociative half-lives (t½) were calculated from the kinetic rate constants as:

[2] = molecular target: T2, Celery (Api g 1, MyBiosource, Cat …); test: SPR, mAb captured via anti-hFc, 25 C
Method: as §1

[3] = molecular target: T3, European Hornbeam (Car b 1 isoform 1A & …); test: SPR, mAb captured via anti-hFc, 25 C
Method: as §1

[4] = molecular target: T4, CHO produced recombinant Bet v 1 …; test: SPR, mAb captured via anti-hFc, 37 C
Method: (§2) Equilibrium dissociation constants (KD) for natural Bet v 1 binding to purified anti-Bet v 1 monoclonal antibodies were determined using a real-time surface plasmon resonance biosensor (SPR-Biacore) on a Biacore 4000 instrument. All binding studies were performed in 10 mM HEPES, 150 mM NaCl, 3 mM EDTA, and 0.05% v/v surfactant Tween-20, pH 7.4 (HBS-ET) running buffer at 25° C. and 37° C. […] Association (kₐ) and dissociation (kd) rate constants were determined by fitting the real-time binding sensorgrams to a 1:1 binding model with mass transport limitation using Scrubber 2.0c curve-fitting software. Binding dissociation equilibrium constants (KD) and dissociative half-lives (t½) were calculated from the kinetic rate constants as:

[5] = molecular target: T5, Apple (Mal d 1, MyBiosource, Cat …); test: SPR, mAb captured via anti-hFc, 25 C
Method: as §1

[6] = molecular target: T6, European Hornbeam (Car b 1 isoform 2, …); test: SPR, mAb captured via anti-hFc, 25 C
Method: as §1

[7] = molecular target: T4, CHO produced recombinant Bet v 1 …; test: SPR, mAb captured via anti-hFc, 25 C
Method: as §2

Binder | 100 nM Analyte Bound (RU) [1] | 100 nM Analyte Bound (RU) [2] | 100 nM Analyte Bound (RU) [3] | binding result [3] | 100 nM natural Bet v 1-MHH Bound (RU) [4] | 100 nM Analyte Bound (RU) [5] | binding result [5] | 100 nM Analyte Bound (RU) [6] | Kd [6] | koff [6] | kon [6] | t½ [6] | 100 nM natural Bet v 1- MMH Bound (RU) [7] | binding result [2] | Kd [4] | koff [4] | kon [4] | t½ [4] | Kd [7] | koff [7] | further results
H4H17001P (antibody, human IgG4, V domains shown, Fully human antibody with human IgG4 Fc (H4H prefix)) VH: QVQLVESGGGLVKPGGSLRLSCAASGFTFSDYYMNWIRQAPGKGLEWISLISSSGSAIYYSDSVKGRFTISRDNARKSLYLQVNSLRAEDTAVYYCARDRGEWALGAYYYGLDVWGQGTTVTVSS VL: DIVMTQSPLSLPVTPGEPASISCRSSQSLLHSDGYNYLDWYLQKSGQSPQLLIYLGSNRASGVPDRFSGSGSGTDFTLKISRMEAEDVGVYYCMQALQTPYTFGQGTKLEIK | 49 RU | -1 RU | 0 RU | no binding (tested: 100 nM) | 2 RU | 0 RU | no binding (tested: 100 nM) | 157 RU | 1.58 nM | 0.0032 s⁻¹ | 2.03e+06 M⁻¹ s⁻¹ | 3.6 min | 1 RU | – | – | – | – | – | – | – | Kd [1]: 105 nM; koff [1]: 0.0278 s⁻¹; kon [1]: 264000 M⁻¹ s⁻¹; t½ [1]: 0.4 min; binding result [7]: no binding (tested: 100 nM)
H4H16991P (antibody, human IgG4, V domains shown, Fully human antibody with human IgG4 Fc (H4H prefix)) VH: QVQLVQSGAEVRKPGASVKVSCKASGYTFTGYYLHWVRQAPGQGLEWMGLINPNTGGTNFAQKFQGRVTMTRDSSISAAYMELSRLRSDDTAVYYCARQHWNRYFDNWGQGTLVTVSS VL: DIQMTQSPSTLSASVGDRVTITCRASQSVGNWLAWYQQKPGKAPKLLIQEASSIESGVPSRFSGSGSGTEFTLIVSSLQPDDFATYYCQQYNSYSWTFGHGTKVEIK | 3 RU | 0 RU | 1 RU | no binding (tested: 100 nM) | 67 RU | 0 RU | no binding (tested: 100 nM) | 93 RU | 37.8 nM | 0.0404 s⁻¹ | 1.07e+06 M⁻¹ s⁻¹ | 0.3 min | 61 RU | no binding (tested: 100 nM) | 1.48 nM | 0.00106 s⁻¹ | 717000 M⁻¹ s⁻¹ | 11 min | 0.735 nM | 0.000287 s⁻¹ | binding result [1]: no binding (tested: 100 nM); kon [7]: 390000 M⁻¹ s⁻¹; t½ [7]: 40 min
H4H17027P (antibody, human IgG4, V domains shown, Fully human antibody with human IgG4 Fc (H4H prefix)) VH: EVQLVESGGGLVQPGGSLRLSCAASGFTFRNYAMHWVRQAPGEGLEWVAAIYRNSDSIDYADSVKGRFTISRDNAKNSLYLQMNSLKTEDTALYYCAKDEGFLEYFDSWGQGTLVTVSS VL: EIVLTQSPGTLSLSPGERASLSCRASQSVSSSFLAWYQQKPGQAPRLLIYGVSSRFIGIPDRFSGGGSGTDFTLTITRLEPEDFAVYYCQQYGRSPWTFGQGTKVEIK | 9 RU | 0 RU | 41 RU | – | 78 RU | 0 RU | no binding (tested: 100 nM) | 42 RU | 98.9 nM | 0.00577 s⁻¹ | 58400 M⁻¹ s⁻¹ | 2 min | 63 RU | no binding (tested: 100 nM) | 6.8 nM | 0.00116 s⁻¹ | 171000 M⁻¹ s⁻¹ | 9.9 min | 2.9 nM | 0.000319 s⁻¹ | Kd [1]: 69.2 nM; koff [1]: 0.00643 s⁻¹; kon [1]: 92900 M⁻¹ s⁻¹; t½ [1]: 1.8 min; Kd [3]: 214 nM; koff [3]: 0.00673 s⁻¹; kon [3]: 31400 M⁻¹ s⁻¹; t½ [3]: 1.7 min; kon [7]: 110000 M⁻¹ s⁻¹; t½ [7]: 36 min
H4H17015P (antibody, human IgG4, V domains shown, Fully human antibody with human IgG4 Fc (H4H prefix)) VH: QVQLQESGPGLVKPSQTLSLTCTVSGGSISSADHYWSWIRQQPGKGLEWIGYISYRGTTYYNPTLESRVSISVDTFKNQFSLMLHSVTVADTAVYYCAKVLQGLVRFRDYGFDVWGQGTTVTVSS VL: DIQLTQSPPFLSASVGDRVTITCWASQDISSYLAWYQQNPGKSPKLLIYDAFTLHTGVPSRFSGSGSGTEFTLTISSLQPEDFATFYCQHLYSFPFTFGPGTKVDIK | 8 RU | 0 RU | 0 RU | no binding (tested: 100 nM) | 89 RU | 0 RU | no binding (tested: 100 nM) | 2 RU | – | – | – | – | 76 RU | no binding (tested: 100 nM) | 2.02 nM | 0.000899 s⁻¹ | 445000 M⁻¹ s⁻¹ | 13 min | 1.03 nM | 0.000281 s⁻¹ | binding result [1]: no binding (tested: 100 nM); binding result [6]: no binding (tested: 100 nM); kon [7]: 272000 M⁻¹ s⁻¹; t½ [7]: 41 min
H4H16987P (antibody, human IgG4 S228P, kappa, V domains shown, human IgG4 Fc; also called MAB4) VH: EVQLVESGGGLVQPGGSLRLSCAASGFTVSSNSMSWVRQAPGEGLEWVSVIFSGGITYYSDSVKGRFTISRHNSKNTLYLQMNSLRTEDTAVYYCARHSNWNFDAFDIWGQGTMVTVSS VL: DIQMTQSPSSLSASVGDRVTITCRASQSFDTYLNWYQQKPGKAPNLLIYATSSLQSGVPSRFSGSGSGTDFTLTISSLQPEDFGTYYCQQSYSIPYTFGQGTKLEIKR | 139 RU | 1 RU | 0 RU | no binding (tested: 100 nM) | 36 RU | 2 RU | no binding (tested: 100 nM) | 153 RU | 5.56 nM | 0.00561 s⁻¹ | 1.01e+06 M⁻¹ s⁻¹ | 2.1 min | 46 RU | no binding (tested: 100 nM) | 106 nM | 0.0847 s⁻¹ | 795000 M⁻¹ s⁻¹ | 0.14 min | 43.8 nM | 0.0215 s⁻¹ | Kd [1]: 3.94 nM; koff [1]: 0.00087 s⁻¹; kon [1]: 221000 M⁻¹ s⁻¹; t½ [1]: 13 min; kon [7]: 490000 M⁻¹ s⁻¹; t½ [7]: 0.5 min
H4H16979P (antibody, human IgG4, V domains shown, Fully human antibody with human IgG4 Fc (H4H prefix)) VH: QVQLVQSGAEVKKPGASVKVSCKASGYTFIAYYLHWVRQAPGQGLEWMGLLNPYTGGSYYTQKFQGRVTMTRDTSIDTAYMELNSLRSDDTAIYYCARDKRSYYIPYAFEIWGQGTMVTVSS VL: not shown | 0 RU | 0 RU | 1 RU | no binding (tested: 100 nM) | 56 RU | 1 RU | no binding (tested: 100 nM) | 114 RU | 2.48 nM | 0.00241 s⁻¹ | 971000 M⁻¹ s⁻¹ | 4.8 min | 46 RU | no binding (tested: 100 nM) | 1.58 nM | 0.00073 s⁻¹ | 462000 M⁻¹ s⁻¹ | 16 min | 0.804 nM | 0.00023 s⁻¹ | binding result [1]: no binding (tested: 100 nM); kon [7]: 286000 M⁻¹ s⁻¹; t½ [7]: 50 min
